These results are taken from patent publication US20250011471A1 (published 2025).

A value given as a limit tells only on which side of the number the result lay.

The target of assay [1] is T1, human FGFR1c on cells (human, UniProt P11362 22-822).
T1 construct: HEK293 cells expressing FGFR1c without KLB; also called hFGFR1c
Nature of the assay: radiolabeled ligand cell binding assay on stable HEK293 cells, iodinated against unlabeled protein.

A further assay has as its target T2, human KLB on cells (human, UniProt Q86Z14 53-1044).
T2 construct: also called hKLB; beta-Klotho
The assay is described as above.

Assay [2] addresses T3, human KLB/human FGFR1c complex on HEK293 cells (human, UniProt Q86Z14 53-1044; P11362 22-822).
T3 construct: both receptors coexpressed on the same cells; Also used for L6 and COS7 cells transfected with both receptors (COS7: SNAP-tagged FGFR1c); also called FGFR1c/KLB complex
The assay is described as above.

A further assay has as its target T4, mouse KLB (mouse, UniProt Q99N32 53-990).
T4 construct: KLB cDNA in pRK vector, transiently expressed on HEK293T cells for FACS
T4 sequence: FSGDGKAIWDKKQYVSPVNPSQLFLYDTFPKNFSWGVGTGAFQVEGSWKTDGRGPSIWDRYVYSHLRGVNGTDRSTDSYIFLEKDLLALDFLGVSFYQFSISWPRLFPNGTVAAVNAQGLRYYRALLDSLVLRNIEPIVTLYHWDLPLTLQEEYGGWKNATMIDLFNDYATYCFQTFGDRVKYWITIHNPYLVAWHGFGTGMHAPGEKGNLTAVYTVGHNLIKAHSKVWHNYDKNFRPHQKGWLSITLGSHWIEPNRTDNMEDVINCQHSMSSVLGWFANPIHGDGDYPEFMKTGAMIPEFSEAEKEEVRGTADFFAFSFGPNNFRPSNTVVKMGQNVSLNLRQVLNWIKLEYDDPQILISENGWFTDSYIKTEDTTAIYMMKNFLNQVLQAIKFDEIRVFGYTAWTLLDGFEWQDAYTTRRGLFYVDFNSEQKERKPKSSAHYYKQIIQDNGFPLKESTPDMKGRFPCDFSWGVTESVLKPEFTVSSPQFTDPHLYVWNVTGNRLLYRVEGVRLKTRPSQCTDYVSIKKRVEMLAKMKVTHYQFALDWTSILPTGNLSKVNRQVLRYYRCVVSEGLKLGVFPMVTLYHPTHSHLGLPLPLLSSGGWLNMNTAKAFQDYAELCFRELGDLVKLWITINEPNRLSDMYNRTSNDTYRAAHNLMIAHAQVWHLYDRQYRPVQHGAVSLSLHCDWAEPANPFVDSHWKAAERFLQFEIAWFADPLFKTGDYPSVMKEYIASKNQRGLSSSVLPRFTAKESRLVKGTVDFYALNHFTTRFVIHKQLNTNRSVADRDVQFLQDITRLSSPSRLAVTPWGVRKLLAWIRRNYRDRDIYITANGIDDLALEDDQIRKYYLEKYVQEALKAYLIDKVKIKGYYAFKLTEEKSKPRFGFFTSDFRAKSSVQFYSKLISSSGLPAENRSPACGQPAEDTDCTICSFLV
The assay is described as above.

Assay [3] addresses T1, human FGFR1c on cells. Description: radiolabel ligand assay on cells expressing only FGFR1c; could not be determined reliably.
For assay [4], the target named is T3, human KLB/human FGFR1c complex on …. Description: cell-based or functional assay.

T1 sequence (P11362 other isoform, or with tags, fused parts or gaps limits assumed): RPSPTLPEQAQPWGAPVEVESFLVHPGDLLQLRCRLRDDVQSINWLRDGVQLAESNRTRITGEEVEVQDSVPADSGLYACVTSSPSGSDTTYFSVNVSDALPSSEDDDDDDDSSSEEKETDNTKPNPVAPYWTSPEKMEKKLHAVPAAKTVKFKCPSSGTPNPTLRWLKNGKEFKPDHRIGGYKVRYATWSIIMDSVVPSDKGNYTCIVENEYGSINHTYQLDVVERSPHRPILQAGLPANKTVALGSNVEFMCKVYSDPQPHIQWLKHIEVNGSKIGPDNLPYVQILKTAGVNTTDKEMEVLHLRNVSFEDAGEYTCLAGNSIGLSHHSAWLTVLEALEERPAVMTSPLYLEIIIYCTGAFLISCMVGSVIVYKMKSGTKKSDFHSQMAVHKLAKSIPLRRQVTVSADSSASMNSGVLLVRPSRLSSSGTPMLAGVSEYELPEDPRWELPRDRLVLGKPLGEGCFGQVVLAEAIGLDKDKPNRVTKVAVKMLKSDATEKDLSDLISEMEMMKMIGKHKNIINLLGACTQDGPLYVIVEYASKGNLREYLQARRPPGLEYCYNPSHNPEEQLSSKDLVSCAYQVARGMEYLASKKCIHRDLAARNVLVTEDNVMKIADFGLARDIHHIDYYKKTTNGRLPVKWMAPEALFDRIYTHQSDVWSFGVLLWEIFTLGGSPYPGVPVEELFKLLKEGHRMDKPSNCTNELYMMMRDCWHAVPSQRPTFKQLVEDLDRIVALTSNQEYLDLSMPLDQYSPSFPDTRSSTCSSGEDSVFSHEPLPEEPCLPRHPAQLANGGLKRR

B1: BsAb10 (bispecific antibody)
chain 1: EVQLVESGGGLVQPGGSLRLSCAASGFTFTSNWISWVRQAPGKGLEWVAEIDPYDGATDYADSVKGRFTISADTSKNTAYLQMNSLRAEDTAVYYCATGTDVMDYWGQGTLVTVSS
chain 2: DIQMTQSPSSLSASVGDRVTITCRASQDVSTAVAWYQQKPGKAPKLLIYSASFLYSGVPSRFSGSGSGTDFTLTISSLQPEDFATYYCQQSYTTPPTFGQGTKVEIK
chain 3: QVQLKQSGPGLVQPSQSLSVACTVSDFSLTTYGVHWVRQSPGKGLEWLGVIWSGGSTDYNAAFISRLTISKDNSKSQVFFKMNSLQTTDTAIYYCARDYGSTYVDAIDYWGQGTSVTVSS
chain 4: DIVLTQSPTSLAVSLGQRATISCRASESVESYGNRYMTWYQQKPGQPPKLLIYRAANLQSGIPARFSGSGSRTDFTLTIDPVEADDVATYYCQQSNEDPWTFGGGTKVEIK
With B1, the Kd is 300 nM with human FGFR1c on cells [1]; 6.6 nM in the assay with human KLB on cells; 2.3 nM in assay [2]; 15.5 nM in the assay with mouse KLB; > 300 nM in the assay with human FGFR1c on cells [3]. Further, the “EC50 in GAL-ELK1 assay in HEK293 cells” value in assay [4] amounted to 3.2 nM.

B2: BsAb9 (bispecific antibody)
chain 1: B1 chain 1
chain 2: B1 chain 2
chain 3: EVKFLESGGGLVQPGGSLRLSCAVSGIDFSRYWMSWVRQAPGKGLEWIGEISPDSSTINYTPSLKDKFVISRDNAKNTLYLQMSKVRSADTALYYCARPSPALDYWGQGTLVTVSA
chain 4: DIVMTQSPATLSVTPGDRVSLSCRASQSISDYVYWYQQKSHESPRLLIIYASQSISGIPSRFSGSGSGSDFTLSINSVEPEDVGVYYCQNGHNFPYTFGGGTKLEIK
In the case of B2, the Kd stood at 300 nM in the assay with human FGFR1c on cells [1], 9.8 nM with human KLB on cells and 2.2 nM in assay [2].

A word on the Kd: it is the free concentration of one partner at which half of the binding sites on the other are occupied at equilibrium, for simple one-to-one binding.
